The values below come from FireProtDB (doi:10.1021/bi0268697).

The labels stand for the following.
B1: Barstar, P11540 (parent)
chain: MKKAVINGEQIRSISDLHQTLKKELALPEYYGENLDALWDCLTGWVEYPLVLEWRQFEQSKQLTENGAESVLQVFREAKAEGCDITIILS

Values joined by “and” are separate entries in the source; they are usually repeats but may differ in a detail not shown here. Identical values can stand only once.

The data set covers variants of B1. To be noted: Bacillus amyloliquefaciens; pH 8; 25 °C; Urea; CD; Tris 20 mM; reversible: yes; structure 1BTA; whole UniProt chain shown.

For the variant W39F W45F S13T C41A, the “denaturant midpoint (higher = more stable)” value (“denaturant midpoint” for short) was 3.4 M and 3.5 M; the unfolding free energy is 4.5 kcal/mol.
As to W39F W45F C83A, the “denaturant midpoint” value is 3.3 M and 3.7 M; the unfolding free energy is 4.2 kcal/mol and 4.7 kcal/mol.
In the case of W39F W45F C41A C83A A26C, the “denaturant midpoint” value was 3.5 M and 3.4 M; the unfolding free energy is 4.4 kcal/mol and 4.3 kcal/mol.
W39F W45F C41A C83A L63C: the “denaturant midpoint” value is 3.3 M and the unfolding free energy was 4 kcal/mol.
